The assay has as its target human linker histone H1.0 (human, UniProt P07305 1-194). Kind of assay: ITC. In general terms: Isothermal titration calorimetry measures the heat released or taken up as one component is titrated into another.

The values below come from publication PMC7984725 (Biochemistry, 2018).

Chain of human linker histone H1.0 (P07305 whole entry): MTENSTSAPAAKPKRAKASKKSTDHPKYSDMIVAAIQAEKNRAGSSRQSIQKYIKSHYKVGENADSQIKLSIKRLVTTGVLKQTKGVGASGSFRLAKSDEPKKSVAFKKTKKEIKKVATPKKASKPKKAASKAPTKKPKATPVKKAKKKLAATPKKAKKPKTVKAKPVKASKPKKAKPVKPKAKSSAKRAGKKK

B1: prothymosin-α (ProTα) (natural protein, UniProt P06454 1-111, looked up)
chain: MSDAAVDTSSEITTKDLKEKKEVVEEAENGRDAPANGNAENEENGEQEADNEVDEEEEEGGEEEEEEEEGDGEEEDGDEDEEAESATGKRAAEDDEDDDVDTKKQKTDEDD
Broadly, the Kd is a measure of binding affinity in units of concentration. A lower Kd goes with higher affinity. Usually stoichiometry N stands for a count of units in the complex or per binding partner. Regarding B1, the Kd turned out to be 460 nM and the “stoichiometry N” value came out at 1.
